Reference: publication PMC8962251 (Biomedicines, 2022)
Where no end group is shown, it is not given here.

Tests used:
[1] = target: T1, SARS-CoV-2 S1S2-His (monomeric S1S2 spike protein) (SARS-CoV-2, UniProt P0DTC2 14-1213); assay: SPR; settings: both partners purified
T1 construct: source: High Five insect cells, purified (HisExcel, SEC)

[2] = target: T2, SARS-CoV-2 RBD (High Five insect cells, 6x His-tag) (SARS-CoV-2, UniProt P0DTC2); assay: SPR; settings: both partners purified
T2 construct: source: High Five insect cells, purified (HisExcel, SEC)

B1: CVRBDL-3 (peptide)
peptide: HDFWWEYDKKNDTWTRRRR-NH2
notes: also called CVRDBL-3; CVRBD-3; source: synthetic peptide; bought: CASLO
stoichiometry N [1]: 1 | stoichiometry N [2]: 1
